Test results as given in patent US20090214524A1.

Biological target: Bub3 (UniProt O43684)
Assay: cell-based or functional assay

Chain of UniProt O43684 (O43684 whole entry): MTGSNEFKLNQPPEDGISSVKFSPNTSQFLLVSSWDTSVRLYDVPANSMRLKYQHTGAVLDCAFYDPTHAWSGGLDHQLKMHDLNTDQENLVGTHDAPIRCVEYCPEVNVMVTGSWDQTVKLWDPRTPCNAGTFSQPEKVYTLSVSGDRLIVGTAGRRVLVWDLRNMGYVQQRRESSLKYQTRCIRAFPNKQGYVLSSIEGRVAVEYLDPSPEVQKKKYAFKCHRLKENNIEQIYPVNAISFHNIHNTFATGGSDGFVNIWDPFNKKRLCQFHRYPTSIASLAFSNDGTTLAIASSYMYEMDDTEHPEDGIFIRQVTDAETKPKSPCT

- restoration of colcemid-mediated mitotic checkpoint arrest (BrdU incorporation) in T98G cells depleted of endogenous BubR1: 50%
Substance: myc-tagged siRNA-resistant wild type BubR1 (pcDNA3-myc-BubR1^ΔsiRNA) (from UniProt O60566 1-1050)
